# From IntAct's records for PubMed 25036637
# B1: BAG family molecular chaperone regulator 4 (Homo sapiens), O95429 (parent)
# chain: MSALRRSGYGPSDGPSYGRYYGPGGGDVPVHPPPPLYPLRPEPPQPPISWRVRGGGPAETTWLGEGGGGDGYYPSGGAWPEPGRAGGSHQEQPPYPSYNSNYWNSTARSRAPYPSTYPVRPELQGQSLNSYTNGAYGPTYPPGPGANTASYSGAYYAPGYTQTSYSTEVPSTYRSSGNSPTPVSRWIYPQQDCQTEAPPLRGQVPGYPPSQNPGMTLPHYPYGDGNRSVPQSGPTVRPQEDAWASPGAYGMGGRYPWPSSAPSAPPGNLYMTESTSPWPSSGSPQSPPSPPVQQPKDSSYPYSQSDQSMNRHNFPCSVHQYESSGTVNNDDSDLLDSQVQYSAEPQLYGNATSDHPNNQDQSSSLPEECVPSDESTPPSIKKIIHVLEKVQYLEQEVEEFVGKKTDKAYWLLEEMLTKELLELDSVETGGQDSVRQARKEAVCKIQAILEKLEKKGL
# partner: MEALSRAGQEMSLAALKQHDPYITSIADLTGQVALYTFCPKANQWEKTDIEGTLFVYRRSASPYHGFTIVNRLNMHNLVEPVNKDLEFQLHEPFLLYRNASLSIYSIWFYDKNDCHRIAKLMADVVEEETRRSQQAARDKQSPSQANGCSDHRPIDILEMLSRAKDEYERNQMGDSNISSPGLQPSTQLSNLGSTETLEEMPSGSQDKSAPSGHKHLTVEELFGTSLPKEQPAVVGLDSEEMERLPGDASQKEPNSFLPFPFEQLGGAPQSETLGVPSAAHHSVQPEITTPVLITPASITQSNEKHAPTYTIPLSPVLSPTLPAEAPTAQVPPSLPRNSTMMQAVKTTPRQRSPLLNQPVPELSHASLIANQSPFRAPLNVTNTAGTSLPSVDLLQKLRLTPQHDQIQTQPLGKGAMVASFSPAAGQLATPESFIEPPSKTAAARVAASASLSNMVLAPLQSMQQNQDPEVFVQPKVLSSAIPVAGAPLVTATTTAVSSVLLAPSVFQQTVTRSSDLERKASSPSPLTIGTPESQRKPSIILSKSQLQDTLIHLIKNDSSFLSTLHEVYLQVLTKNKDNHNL
# Variants of: B1
# Conditions: with dcp1a_human DCP1A
row,Variant,effect of a mutation on the interaction
1,D424A,disrupting interaction
